# In patent publication US20240400715A1 (VIBRANT PHARMA, published 2024):
# Residue numbers refer to the chain shown, from its start.
# T1: human CEA (CEACAM5) on tumor cells (human, UniProt P06731 35-702)
# T1 sequence (looked up): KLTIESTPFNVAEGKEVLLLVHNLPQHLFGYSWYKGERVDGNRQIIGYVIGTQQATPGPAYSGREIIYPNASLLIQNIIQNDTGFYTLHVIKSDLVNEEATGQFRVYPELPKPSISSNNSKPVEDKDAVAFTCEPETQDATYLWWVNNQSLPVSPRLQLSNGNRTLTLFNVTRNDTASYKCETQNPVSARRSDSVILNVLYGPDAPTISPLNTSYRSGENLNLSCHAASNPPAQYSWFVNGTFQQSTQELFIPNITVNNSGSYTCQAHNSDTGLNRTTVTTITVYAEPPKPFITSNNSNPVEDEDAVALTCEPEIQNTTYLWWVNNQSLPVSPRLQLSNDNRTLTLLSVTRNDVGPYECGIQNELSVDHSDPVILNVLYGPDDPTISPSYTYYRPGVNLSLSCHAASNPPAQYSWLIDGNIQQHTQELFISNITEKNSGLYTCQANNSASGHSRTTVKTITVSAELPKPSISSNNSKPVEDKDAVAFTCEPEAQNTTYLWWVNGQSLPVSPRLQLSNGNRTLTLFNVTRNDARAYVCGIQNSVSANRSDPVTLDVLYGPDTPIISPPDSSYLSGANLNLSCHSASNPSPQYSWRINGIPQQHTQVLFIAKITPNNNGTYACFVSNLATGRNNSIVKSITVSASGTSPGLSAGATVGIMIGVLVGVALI
# B1: bispecific antibody 101 (Fab-Knob+CEA-Hole) (bispecific antibody, human IgG4 S228P, kappa, F234A L235A)
# heavy: EVKLLESGGGLVQPKGSLKLSCAASGFTFNTYAMNWVRQAPGKGLEWVARIRSKYNNYATYYADSVKDRFTISRDDSQSILYLQMNNLKTEDTAMYYCVRHGNFGNSYVSWFAYWGQGTLVTVSSASTKGPSVFPLAPCSRSTSESTAALGCLVKDYFPEPVTVSWNSGALTSGVHTFPAVLQSSGLYSLSSVVTVPSSSLGTKTYTCNVDHKPSNTKVDKRVESKYGPPCPPCPAPEAAGGPSVFLFPPKPKDTLMISRTPEVTCVVVDVSQEDPEVQFNWYVDGVEVHNAKTKPREEQFNSTYRVVSVLTVLHQDWLNGKEYKCKVSNKGLPSSIEKTISKAKGQPREPQVYTLPPCQEEMTKNQVSLWCLVKGFYPSDIAVEWESNGQPENNYKTTPPVLDSDGSFFLYSRLTVDKSRWQEGNVFSCSVMHEALHNHYTQKSLSLSL
# chain: EVQLVESGGGFVQAGESLTLSCTSSTLTFTPYRMAWYRQAPGKQRDLVADISSGDGRTTNYADFAKGRFTISRDNIKNTVFLRMTNLKPEDTAVYYCNTFVSFVGIARSWGQGTQVTVSSESKYGPPCPPCPAPEAAGGPSVFLFPPKPKDTLMISRTPEVTCVVVDVSQEDPEVQFNWYVDGVEVHNAKTKPREEQFNSTYRVVSVLTVLHQDWLNGKEYKCKVSNKGLPSSIEKTISKAKGQPREPQVCTLPPSQEEMTKNQVSLSCAVKGFYPSDIAVEWESNGQPENNYKTTPPVLDSDGSFFLVSRLTVDKSRWQEGNVFSCSVMHEALHNRFTQKSLSLSL
# light: QAVVTQESALTTSPGETVTLTCRSSTGAVTTSNYANWVQEKPDHLFTGLIGGTNKRAPGVPARFSGSLIGDKAALTITGAQTEDEAIYFCALWYSNLWVFGGGTKVEIKRTVAAPSVFIFPPSDEQLKSGTASVVCLLNNFYPREAKVQWKVDNALQSGNSQESVTEQDSKDSTYSLSSTLTLSKADYEKHKVYACEVTHQGLSSPVTKSFNRGEC
# notes: Human IgG4 Fc with knob-into-hole, kappa light chain
# B2: EGFR-CD3 bispecific antibody 404 (bispecific antibody, human IgG4 S228P, kappa, F234A L235A)
# chain: QVQLQESGGGSVQAGGSLKLSCAASGRGFSRYAMGWFRQAPGQDREFVATISWTNSTDYADSVKGRFAISRDNAKNTAYLQMNSLKPEDTAVYYCAADKWASSTRSIDYDYWGQGIQVTVSSESKYGPPCPPCPAPEAAGGPSVFLFPPKPKDTLMISRTPEVTCVVVDVSQEDPEVQFNWYVDGVEVHNAKTKPREEQFNSTYRVVSVLTVLHQDWLNGKEYKCKVSNKGLPSSIEKTISKAKGQPREPQVYTLPPCQEEMTKNQVSLWCLVKGFYPSDIAVEWESNGQPENNYKTTPPVLDSDGSFFLYSRLTVDKSRWQEGNVFSCSVMHEALHNHYTQKSLSLSL
# heavy: B1 heavy with Y354C, C359S, W371S, L373A, Y412V, H440R, Y441F
# light: B1 light
# B3: HER2-CD3 bispecific antibody 504 (bispecific antibody, human IgG4 S228P, kappa, F234A L235A)
# chain: QVQLVQSGGGLVQAGGSLRLSCAASGRTFSSYAMAWFRQAPGKEREFVAAISWSGANIYVADSVKGRFTISRDNAKDTVYLQMNSLKPEDTAVYYCAVKLGFAPVEERQYDYWGQGTQVTVSSESKYGPPCPPCPAPEAAGGPSVFLFPPKPKDTLMISRTPEVTCVVVDVSQEDPEVQFNWYVDGVEVHNAKTKPREEQFNSTYRVVSVLTVLHQDWLNGKEYKCKVSNKGLPSSIEKTISKAKGQPREPQVYTLPPCQEEMTKNQVSLWCLVKGFYPSDIAVEWESNGQPENNYKTTPPVLDSDGSFFLYSRLTVDKSRWQEGNVFSCSVMHEALHNHYTQKSLSLSL
# heavy: B1 heavy with Y354C, C359S, W371S, L373A, Y412V, H440R, Y441F
# light: B1 light
# B4: bispecific antibody 104 (CEA-Knob+Fab-Hole) (bispecific antibody, human IgG4 S228P, kappa, F234A L235A)
# chain: B1 chain with C251Y, S256C, S268W, A270L, V309Y, R337H, F338Y
# heavy: B1 heavy with Y354C, C359S, W371S, L373A, Y412V, H440R, Y441F
# light: B1 light
# notes: as for B1
# B5: EGFR-CD3 bispecific antibody 401 (bispecific antibody, human IgG4 S228P, kappa, F234A L235A)
# heavy: B1 heavy
# chain: B2 chain with Y253C, C258S, W270S, L272A, Y311V, H339R, Y340F
# light: B1 light
# What was measured:
# [1] = target: T2, keyhole limpet haemocyanin (KLH, Sigma, H8283) (keyhole limpet, UniProt Q10583 17-3414; Q10584 20-3421, limits assumed); assay: ELISA, KLH coated at 5 ug/mL, 100 nM antibody, anti-human IgG-HRP
# T2 construct: Bought preparation coated on the plate in the polyspecificity ELISA
# Protocol: (§1) (1) Antigen coating: cardiolipin (Sigma, cat. C0563), keyhole limpet haemocyanin (KLH, Sigma, H8283), LPS (Sigma, L6529), ssDNA (Sigma, D8899), dsDNA (Sigma, D4522) and Insulin (abs42019847) were plated at 50 μg/mL, 5 μg/mL, 10 μg/mL, 1 μg/mL, 1 μg/mL, g/mL, and 50 μL per well, and incubated at 4° C. overnight;
# (§2) (4) 50 μl anti-human IgG-HRP conjugate (Sigma, AP113P, 1:8000 dilution) was added to each well; the plate was incubated for 1 h at room temperature and washed 6 times with 0.05% PBST;
# [2] = target: T1, human CEA (CEACAM5) on tumor cells; assay: cell-based or functional assay
# [3] = target: the molecule itself; assay: BLI self-interaction: antibody captured on AHQ anti-human Fc sensor, free sites blocked with human IgG, same antibody in solution
# Protocol: The bispecific antibodies were diluted to 1 μM, and the proteins were coupled to the surface of the AHQ sensor chip in PBS, and the signal value was ˜0.8 nm. […] The experimental parameters are as follows: Baseline1: 60s, Loading: 180s, Loading response: 0.8 nm, Baseline2: 180s, Association: 240s, High sensitivity kinetics: 2 Hz.
# [4] = target: T1, human CEA (CEACAM5) on tumor cells; assay: cell-based or functional assay; remark: listed apart in the source
# Insulin (abs42019847) = target: T3, Insulin (abs42019847); assay: ELISA, insulin coated on the plate, 100 nM antibody, anti-human IgG-HRP
# T3 construct: Coated on the plate in the polyspecificity ELISA
# Protocol: as §1, §2
# [5] = target: T4, human EGFR on tumor cells (human, UniProt P00533 25-1210); assay: cell-based or functional assay
# [6] = target: T4, human EGFR on tumor cells; assay: cell-based or functional assay; remark: listed apart in the source
# [7] = target: T5, human HER2 on tumor cells (human, UniProt P04626 23-1255); assay: cell-based or functional assay
# [8] = target: T5, human HER2 on tumor cells; assay: cell-based or functional assay; remark: listed apart in the source
# [9] = target: T6, recombinant tumor antigen human HER2 (ERBB2, ACRO systems, HE2-H5212) (human, UniProt P04626 23-652); assay: BLI (Octet RED96e), antibody captured on AHC anti-human Fc sensor, HER2 as analyte, 30 C, 1:1 fit
# T6 construct: Bought recombinant protein
# Description: After the chip captures the bispecific antibodies, it was allowed to bind and dissociate with different concentrations of analytes to obtain the KD value of the interaction. The experimental parameters are as follows: Baseline1: 60s, Loading: 240s, Baseline2: 180s, Association: 240s, Dissociation: 600s, Loading Response: 1.9-2.1 (nm), High sensitivity kinetics: 2 Hz. Kinetic constants were derived based on 1:1 Langmuir binding to obtain equilibrium dissociation constants (KD).
Binder,"Absorbance value (450 nm, polyspecificity ELISA) [1]","EC50 of tumor cell killing, MCF-7 cells with human PBMC (E:T 10:1, 3 days, CCK8) [2] [pM]","EC50 of tumor cell killing, MDA-MB-453 cells with human PBMC (E:T 10:1, 3 days, CCK8) [2] [pM]","EC50 of tumor cell killing, N87 cells with human PBMC (E:T 10:1, 3 days, CCK8) [2] [pM]",BLI-Response (self-interaction signal) [3] [nm],"EC50 of tumor cell killing, MDA-MB-468 cells with human PBMC (E:T 10:1, 3 days, CCK8) [4] [pM]","EC50 of tumor cell killing, NCI-H1573 cells with human PBMC (E:T 10:1, 3 days, CCK8) [4] [pM]","EC50 of tumor cell killing, SK-OV-3 cells with human PBMC (E:T 10:1, 3 days, CCK8) [4] [pM]","Absorbance value (450 nm, polyspecificity ELISA) (Insulin (abs42019847))","EC50 of tumor cell killing, MCF-7 cells with human PBMC (E:T 10:1, 3 days, CCK8) [5] [pM]","EC50 of tumor cell killing, N87 cells with human PBMC (E:T 10:1, 3 days, CCK8) [5] [pM]","EC50 of tumor cell killing, NCI-H157 cells with human PBMC (E:T 10:1, 3 days, CCK8) [5] [pM]","EC50 of tumor cell killing, NCI-H441 cells with human PBMC (E:T 10:1, 3 days, CCK8) [5] [pM]","EC50 of tumor cell killing, MDA-MB-468 cells with human PBMC (E:T 10:1, 3 days, CCK8) [6] [pM]","EC50 of tumor cell killing, NCI-H1573 cells with human PBMC (E:T 10:1, 3 days, CCK8) [6] [pM]","EC50 of tumor cell killing, NCI-H1650 cells with human PBMC (E:T 10:1, 3 days, CCK8) [6] [pM]","EC50 of tumor cell killing, NCI-H2228 cells with human PBMC (E:T 10:1, 3 days, CCK8) [6] [pM]","EC50 of tumor cell killing, SK-OV-3 cells with human PBMC (E:T 10:1, 3 days, CCK8) [6] [pM]",other results
B1,1.05,8010,8350,200,0.21,1160,2.87,1000,2.02,,,,,,,,,,
B2,1.06,,,,0.062,,,,1.08,84,1470,17700,9.08,0.0158,6.94,67.7,73.4,9.95,
B3,1.92,,,,,,,,1.51,,,,,,,,,,"EC50 of tumor cell killing, MCF-7 cells with human PBMC (E:T 10:1, 3 days, CCK8) [7]: 1220 pM; EC50 of tumor cell killing, MDA-MB-453 cells with human PBMC (E:T 10:1, 3 days, CCK8) [7]: 4060 pM; EC50 of tumor cell killing, N87 cells with human PBMC (E:T 10:1, 3 days, CCK8) [7]: 1290 pM; EC50 of tumor cell killing, NCI-H157 cells with human PBMC (E:T 10:1, 3 days, CCK8) [7]: 10800 pM; EC50 of tumor cell killing, NCI-H441 cells with human PBMC (E:T 10:1, 3 days, CCK8) [7]: 119 pM; EC50 of tumor cell killing, MDA-MB-468 cells with human PBMC (E:T 10:1, 3 days, CCK8) [8]: 332 pM; EC50 of tumor cell killing, NCI-H1573 cells with human PBMC (E:T 10:1, 3 days, CCK8) [8]: 37.8 pM; EC50 of tumor cell killing, NCI-H1650 cells with human PBMC (E:T 10:1, 3 days, CCK8) [8]: 1620 pM; EC50 of tumor cell killing, NCI-H2228 cells with human PBMC (E:T 10:1, 3 days, CCK8) [8]: 2430 pM; EC50 of tumor cell killing, SK-OV-3 cells with human PBMC (E:T 10:1, 3 days, CCK8) [8]: 10 pM; Kd [9]: 18000 pM; koff [9]: 0.00413 s⁻¹; kon [9]: 230000 M⁻¹ s⁻¹"
B4,1.08,8630,1960,97.2,0.22,672,3.84,987,2.88,,,,,,,,,,
B5,0.96,,,,,,,,1.01,206,1310,10000,5.38,0.0208,5.83,98.6,114,11.3,
